{"source": "patent US20210261650A1", "about": "(published 2021)", "molecular_target": "SARS-CoV-2 Spike (S) protein on pseudotyped virus or live SARS-CoV-2 (SARS-CoV-2 (BetaCoV/Wuhan-Hu-1/2019 for …, UniProt P0DTC2 14-1273))", "test": "cell-based or functional assay"}
{"binder": "SARS-CoV-2 S310 mAb (antibody, V domains shown) VH: QVQLVQSGAELKKPGSSVKVSCKASGGTFNSYSFNWVRQAPGQGLEWLGGIIPVLGTSNYAQKFQGRVAVTADEFTTTAYMELSSLRSEDTAVYYCATRTYDSSGYRPYYYGLDVWGQGTPVTVSS VL: QSALTQPASVSGSPGQSITISCTGTSSDVGSYNLVSWYQQRPGKAPELMIYEVTKRPSGLSNRFSGSKSGNTASLTISGLQAEDEADYYCCSYAGSDTVIFGGGTKVTVL", "values": [{"measurement": "Percent neutralization of infection, dilution 2", "value": -4, "unit": "%"}, {"measurement": "Percent neutralization of infection, dilution 6", "value": -15, "unit": "%"}, {"measurement": "Percent neutralization of infection, dilution 18", "value": -15, "unit": "%"}, {"measurement": "Percent neutralization of infection, dilution 54", "value": -6, "unit": "%"}]}
